assay: soluble on expression in E. coli; label from the status in PepcDB or PDB records

Soluble on expression in E. coli, not soluble:
PHDDSYWDRVLTHGKNCIKYTPNNAASLHNAIRLLNESPWMKVTMGLEALNVAQLYSAERCYMPIAQYLCSEHAPTSHHGAKARNNVKGYDHV
MGSDKIHHHHHHMTGFYEFFSLPDRVEVVCPLCDGCATFTYAHVLQIEKKDAHLFENEQFEIKLFNQRFAHKWPCVLFFPPLFGAVSWREKFPEKYQGASTWEHRANSAFTDGTDLGLICCHQCMAKQKHQLEWPQDAFYSIEFKGHLLWAFNKMMMQQIRDYIQAKDRDAVFASEPIVIRHLPTVFKLAKNREGLVKKINKLIYRP
MQRIELLPLVLDNQTFFQNCPDIIPRIIPFSPCLDGSEVNFICGPLHTGKTSFLRQVAGSLQGLKVYINFEDSRFRDLKPETLQEIKEIAAEYCIKGPEDEEGLAGKDIDDKERPEVPVSYFLDEIHYLPGWGDRVYSLQNDGARVFVTSSSAGIISKEISSRFADGIKIIRLLPFSFKEYLTLKGLRVPRPNFLTPSRCDEMLCLFLQYFENGGFPEIIKSGDFRLSRKYFEETLQKEIIERHTIQDPEGLKKLAVFLISNMASEYSIDTLKRAGGIKDEATVRNYLDYLEEAFLLYRVPMFRHKSEKPDYGKEGENENERESNIPCKVYAGDTGFFKSVFPRYPDSLGLRFENLVFLELLRKGKQVYYFHNTRECDFLIAEKESQKVTAAVQVCLCFGGTAVREREVLGLMEAMEEFGLNEGLILTMDDEEVMEIEGKDGENKRIIINSVWKWMLELEHHHHHH
MPVTLSFGNHQNYTLNESRLAHLLSADKEKAIHMGGWDKVQDHFRAEKKDHALEVLHSIIHGQGRGEPGEMEVNVEDINKIYAFKRLQHLACPAHQDLFTIKMDASQTQFLLMVGDTVISQSNIKDILNISDDAVIESMSREERQLFLQICEVIGSKMTWHPELLQESISTLRKEVTGNAQIKTAVYEMMRPAEAPDHPLVEWQDSLTADEKSMLACINAGNFEPTTQFCKIGYQEVQGEVAFSMMHPCISYLLHSYSPFSEFKPTNSGFLKKLNQDYNDYHAKKMFIDVILEKLYLTHERSLHIGKDGCSRNILLT
MAHHHHHHMTSVEAENQPVEDPETFVVMEENGAPRDPQVAVSALDEAAEEGAVSGGEREPAAAGDDLSNPHVFKVAAREVDEGYMSVIRGLSAFGRADEEVCRNAVDICKDIIAMEQSLFSEVPSYVTNYASMQRAKTVVLNKAVRPHWTIPTPEGPPRTWEEQRAYVDPGVPLMLPYSAERFKKEHPERALVEGTYHNLFYGDGTQVVFTASADNKRKQIEEEKRKHPHPSYHGPYVFEPQQKKPMRVASDFVPSCAEPDRLRVDLRKKPVTKAKAEKSQKKKVTTK
KAIYNRNLGYSDGAGAVLALKKKGHQNACKIAGCELWLKIIERYSREKSFYLVGGKPEVIEETIQKLRKDFPRINIVGYRDGYLKGNDDEVLIEDIAAKKPDVVFVAMGSPKQELLMERMQRVHPNAIYQGLGGSFDVYTGRVERAPEWWIRHNLEFAYRLIKQPSRIKRQIHLVRFLFRVLTNRI
MGSDKIHHHHHHMATIKDIAARLGVSISTVSKGLNGASDISEELRQTVLDTAVEMGYSTKRSRKVENRKLALFIENMNYESIDEFGYDVVLGFKQNAFKHKWDVDIIPVTPQLQAEEKYDTYILKNGYCGAFLVGFALHDEWMQQLKNTTMPTVLFDNYIENNPNVAYVGTDSYEGIDMAVKHLHNLGHKKIAFINGSLFSLVSDQRQEAFENSMRDAGLEIYPELMGHGYYIPETAQYYVSNFIAAGATAILCGSDTIAKGVISECQLHGFNVPNDISVVGFDDVKFAAALTPPLTTIRQERNDLGRCAYIILNSLIHHIPISRTQLRPMLIERESTARVSTAHAAEE
MNVMLSKNYMMEKYNMSTTVGLPQFSHIKIEHFKSHLDALLKNHLEEIDRLLKENHHYTWDNLIYPLDSLADELERFWSPFAHMHAVMDSETIRESYEACLPLLSAYDAAIGHNQDLYEAIKSIDQHSLNPAQKKIIADSIQDFEL
MTIHLISFASILHKQASLRNSHEAILSELEKYYTVKLIDYQDMDKLGSDDFKIIFIATGGVERLVIQHFERLPRPAILLADGMQNSLAAALEISTWLRGRGMKSEILHGELPSIIQRVHILYNNFRAQRSLFGKRIGVIGTPSSWLVASNVDYLLAKRRWGIEYIDIPLERVYEHFKQITDDQVGASCAAVASQALACREGTPEDLIKAMRLYRAIKRICEEEKLEALTLSCFKLIDQIDTTGCLALSLLNDDGIMAGCEGDLQSIFTLLAVKALTGKEGFMANPSTINTRTNELILAHCTIGLKQTERYIIRNHFETEKGIAIQGLLPTGDVTIVKCGGECLDEYYLSTGTLTENTNYINMCRTQVRIRMNTPADYFLKNPLGNHHIMIHGNYEEALNEFLLSNACKRTE
MVYKPLEASDRTELRALQSDRLQRIVTHAHENVPFYREKLDAAGVSPEDIQSIDDITKLPMTTKEDFRDEYPDGLFAVDDEEVARIHASSGTTGKPKIVSYTDDDLDTWSEVVARSLAASGTEAGDTVQNAYGYGLFTGGLGIHYGTEELGASVVPIGSGQTQRQVELMTDLESDVFTCTPSYALYLAETAEEMGHDPRDLPISTIIFGAEPCTDPMREEIEERLGVDGIDIYGLSEIIGPGVSCECHEAKDGLHIWEDHFYPEVIDPHTKEPVEEGEEGELVLTTLTKEALPVFRYRTGDLTTLNYDECACGRTMVRMDNVTGRTDDLLIVRGVNLYPSEIEHAVLDIDGVAPHYRIDLYKEDNLDILELTIERTAEQGPGDKALEDEIIERLENVLAFTPDELELVAPGSIERTQVGKVKRVYDHRD
TKDFSWNSDFIFSHAKNEVTDLRGRTRMMELVSGNGFAREGYPVRGLFSIPFAGLDEKGIPMFDINGNITSTDINFQEREKLDYLKYEGPTDPTITGSFGNVFAYKGFKLNVFMTYSFGNVVRLNPYFNYKYSDLSAMPREFKNRWTLSGDEAKTNIPAILSNPQYEANRTLYKAYNAYNYSTERIAKGDFIRMKEISLSYEFPKSWISAAKISNLSLKLQATNLFLIYADKKLNGQDPEFFNTGGVASPVPRQFTLTLRLGL

Soluble on expression in E. coli, soluble:
SLSLLIDIVDETGSVSEEMLKEVENLLQFAAEREGVQDQAEVSVTIVSNDDIHQINKEYRGKDAPTDVISFALEEEGEGEIEIVGAEMPPVLGNIIISADRTREQAEEYNHSFKRELGFLAVHGFLHLLGYDHMTKEEEEEMFTKQKELLDAYGLKRS
MSLQIAQVLVDVPTMQTNRPYSYRIPTAWQSQVQPGMRVVVPFGRGKRRVQGFVLALDDVTNFDGELKPIDAVVDLAPVLNTEALALTKWLAASTFSFQITCAQTMLPAVMRAKYEKQLRTTATTPATIRTTLFGDQSMVPFDDVATTPAIVSQLLRLQAAGQVDVYYQVKNQARRKTQTAVKAALTNEALQAAVDQVRAGATQQLAVLQGLLTLNGEQLSQKAFCTRFDVTDGAIRTAVQKGWLKKVAVEVYRDPYATSDIKTTKALQLNDEQQVAVDQITQAVDQAATTTFLLEGVTGSGKTEVYLQSMAAALVQGKTALMLVPEISLTPQMVQRVKGRFGKAVAVLHSGLSSGEKYDEWRRIQRGEAQVVVGARSAVFAPLKNLGLIVMDEEHESTYKQDDAPRYHARQVALWRSRYHNCPVVLGSATPSLETRARAEKGVYQRLLLADRVNRRPLPKVSIIDMKKEMQQHAESNFSAPLLVALQDRLERHEQSVLMLNRRGYSSFVLCRDCGFVLKCPNCDISLTLHMDTHTMKCHYCGHEEAIPRNCPNCHSRQIRYYGTGTEKVEEELQDLLPDANIIRMDNDTTRKKGAHAKLLAQFGSGEADILIGTQMIAKGLDFPNVTLVGVLNADTALGLPDFRASERTFQLLTQVSGRAGRAEKSGHVYIQTFNPDHYAIRFAQHHDYEGFFKYEMQMRHRGGYPPYYFTVQITASDLDEGVAAKRMYQLLQWLRPRLAPSTILLGPTPKPIARVNRRYYYQIVIKYKQEPNLAQTLTTLLHETQAQQRQGLQIGIDVEPLHFMEGHHHHHH
MHHHHHHSSGLVPRGSGMKETAAAKFERQHMDSPDLGTDDDDKAMAGTPSKPAEPIGPVFTKLKPWQIPKRDWFDKDFLFGASTSAYQIEGAWNEDGKGPSTWDHFCHTYPERISDMTNGDVAANSYHLYEEDVKALKDMGMKVYRFSISWSRILPDGTGKVNQAGIDYYNKLINSLIDNDIVPYVTIWHWDTPQALEDKYGGFLNRQIVDDYKQFAEVCFKNFGDRVKNWFTFNEPHTYCCFSYGEGIHAPGRCSPGMDCAVPEGDSLREPYTAGHHILLAHAEAVQLFKARYNMHGDSKIGMAFDVMGYEPYQDSFLDDQARERSIDYNMGWFLEPVVRGDYPFSMRSLIGDRLPMFTKEEQEKLASSCDIMGLNYYTSRFSKHVDMSPDFTPTLNTDDAYASSETTGSDGNDIGPITGTYWIYMYPKGLTDLLLIMKEKYGNPPVFITENGIADVEGDESMPDPLDDWKRLDYLQRHISAVKDAIDQGADVRGHFTWGLIDNFEWSLGYSSRFGLVYIDKNDGNKRKLKKSAKWFSKFNSVPKPLLKTTNNNATMTAASVSV
MAELILNQRPYPRDLGKIVCVGRNYAAHAKELNNPIPSSPILFIKPASSAVPFGPVFSIPKDQGSVHHELEIAILIGKALSRASTEQVAESIAGIGLGLDLTLRDVQDQLKEKGHPWERAKSFDGACPLTEFVAVNLASEDEWQAIGLTLEKNGQFQQQGSSAEMLFPILPLIAHMSEHFSLQPGDVILTGTPAGVGPLEVGDSLSAKLSLEDNVLLTCDGVVI
MSLIQLRPCPKSYTRDQDKATTPAETVRRVRERLASLDISILAETRRVDVGRLGIPVFLSVCGADARAVMPTRKQMGKGASLEQAQASALMELMERYSFFTFWRDMPGMVEATWSEARNRFGDALIPVDEILHSVHDTLSPDDAVRALDLWRWKFFPATDITHGREVWLPLDWFKKLGEFNGSSAGNTEEESILQGSCELVERHVCCLIDRTQPELPTIDPASLDDPVLLELAAAFERNGIRLVLKDFSMGMPVPTVGAIAWDPATFPERSEIVYTAGTSSSPVKAAIRAVTEVAQLAGDFCTGACYEASGLSKYESLDDIAWLVAGPVVALDTLPSVETDDIRDELAALCDGLAATGHTLYSVSTMNPDVGVNTHYNIVPGFHFRERDRNASLGLFIGRILSEEADAGTALAGLSVLEELYPGAHFLPFFKGMLALRAESHHEAISFFEQAEPLQPEADSRGLAAFYGAYVRTLLTDWQGALPGLDRAVTECPEMKEYFNLRGVCHFKLGDYAQAAQNFAQVLHIDKGAVVDLANLGLCHKFMGDTEKAEELLSAALEIDPGLDFARRHLDEMREGHHHHHH
SLNFRAEDLASGILRERVKVGASLADVDPMNIDKSVRFDSIGGLSHHIHALKEMVVFPLLYPEIFEKFKIQPPRGCLFYGPPGTGKTLVARALANECSQGDKKVAFFMRKGADCLSKWVGESERQLRLLFDQAYLMRPSIIFFDEIDGLAPVRSSRQDQIHSSIVSTLLALMDGLDNRGEIVVIGATNRLDSIDPALRRPGRFDREFLFNLPDQKARKHILQIHTRDWNPKLSDAFLGELAEKCVGYCGADIKALCTEAALIALRRRYPQIYASSHKLQLDVSSIVLSAQDFYHAMQNIVPASQRAVMSSGHALSPIIRPLLERSFNNILAVLQKVFPHAEISQSDKKEDIETLILEDSEDENALSIFETNCHSGSPKKQSSSAAIHKPYLHFTMSPYHQPTSYRPRLLLSGERGSGQTSHLAPALLHTLERFSVHRLDLPALYSVSAKTPEESCAQIFREARRTVPSIVYMPHIGDWWEAVSETVRATFLTLLQDIPSFSPIFLLSTSETMYSELPEEVKCIFRIQYEEVLYIQRPIEEDRRKFFQELILNQASMAPPRRKHAALCAMEVLPLALPSPPRQLSESEKSRMEDQEENTLRELRLFLRDVTKRLATDKRFNIFSKPVDIEEVSDYLEVIKEPMDLSTVITKIDKHNYLTAKDFLKDIDLICSNALEYNPDKDPGDKIIRHRACTLKDTAHAIIAAELDPEFNKLCEEIKEARI

Source: the DeepSol protein solubility set
